The record followed here is US20040082512A1.

The experiment concerns the target ZOT receptor of rabbit ileum. Kind of experiment: cell-based or functional assay.

Take “FZI/0, synthetic octapeptide Gly Gly Val Leu Val Gln Pro Gly”: the decrease of the effect of ZOT (6xHis-ZOT) on Rt of rabbit ileum after 20 min pre-treatment with FZI/0 was determined as 75%, the decrease of the effect of zonulinh on Rt of rabbit ileum after 20 min pre-treatment with FZI/0 worked out at 100% and the decrease of the effect of zonulini on Rt of rabbit ileum after 20 min pre-treatment with FZI/0 amounted to 97%.
